{
  "source": "patent US20120196803A1",
  "note": "pKd: −log10 of the molar value.",
  "data": [
    {"molecular_target": "GFRα1 receptor/IgG Fc fusion", "test": "double sandwich ELISA, GFRα1/IgG Fc captured on plate", "units": {"Bmax": "A405/min"}, "values": [
      {"substance": "An2-Flex-hGDNF (N-terminal Angiopep-2 fused to hGDNF^78-211 through a flexible ((GGGGS)2) linker) (from UniProt P39905 78-211)", "Bmax": 0.161, "pKd": 9.80},
      {"substance": "An2-Rig-hGDNF (N-terminal Angiopep-2 fused to hGDNF^78-211 through a rigid (PAPAP) linker) (from UniProt P39905 78-211)", "Bmax": 0.202, "pKd": 9.09},
      {"substance": "An2NT-hGDNF (N-terminal reversed sequence Angiopep-2 fused to hGDNF^78-211) (from UniProt P39905 78-211)", "Bmax": 0.161, "pKd": 9.51},
      {"substance": "An2-Hel-hGDNF (N-terminal Angiopep-2 fused to hGDNF^78-211 through a helical (A(EAAAK)2A) linker) (from UniProt P39905 78-211)", "Bmax": 0.142, "pKd": 9.57},
      {"substance": "GDNF (hGDNF^78-211) (from UniProt P39905 78-211) (ligand)", "Bmax": 0.155, "pKd": 9.62},
      {"substance": "An2-hGDNF (N-terminal Angiopep-2 fused to hGDNF^78-211) (from UniProt P39905 78-211)", "Bmax": 0.146, "pKd": 9.17},
      {"substance": "hGDNF-An2 (C-terminal Angiopep-2 fused to hGDNF^78-211) (from UniProt P39905 78-211)", "Bmax": 0.155, "pKd": 9.28}
    ]}
  ]
}
